Data on 1 molecule can be found in US20210355204A1.

Assay [1] concerns the target TGFβ3 (human) (UniProt P10600). The experiment in a line: SPR (Biacore 2000), TGFβ immobilised on CM1 chip, antibody injected. (In general: Surface plasmon resonance follows binding to a sensor surface in real time, without labels.)
Assay [2] concerns the target TGFβ2 (human) (UniProt P61812). The description is as above.
The target of assay [3] is TGFβ1 (human) (UniProt P01137). The assay is described as above.
For assay [4], the target named is TGFβ3 (human) (UniProt P10600). The experiment in a line: SPR (Biacore A100), BM-1 captured on anti-mouse Fc CM5 chip, TGFβ injected.
The target of assay [5] is TGFβ2 (human) (UniProt P61812). The assay is described as above.
The target in assay [6] is TGFβ1 (human) (UniProt P01137). The assay is described as above.
Assay [7] has as its target TGFβ3 (human) (UniProt P10600). The experiment in a line: cell-based or functional assay.
Assay [8] has as its target TGFβ2 (human) (UniProt P61812). The experiment in a line: cell-based or functional assay.
Assay [9] has as its target TGFβ1 (human) (UniProt P01137). The experiment in a line: cell-based or functional assay.

One may read the Kd as the free concentration of one partner at which half of the binding sites on the other are occupied at equilibrium, for simple one-to-one binding. For orientation: koff means the first-order rate constant of dissociation. Low values mean a long-lived complex, high ones a short-lived complex. Broadly, the kon is a measure of how fast the partners come together.

Sequence of TGFβ2 (human) (P61812 303-414 limits assumed): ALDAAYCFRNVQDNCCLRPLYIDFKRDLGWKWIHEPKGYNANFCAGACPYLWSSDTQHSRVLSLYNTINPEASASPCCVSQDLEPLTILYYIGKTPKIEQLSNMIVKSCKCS
Sequence of TGFβ3 (human) (P10600 301-412 limits assumed): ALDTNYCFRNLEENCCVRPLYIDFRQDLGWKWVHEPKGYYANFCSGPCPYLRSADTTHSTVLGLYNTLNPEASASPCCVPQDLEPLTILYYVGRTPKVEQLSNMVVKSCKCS
Sequence of TGFβ1 (human) (P01137 279-390 limits assumed): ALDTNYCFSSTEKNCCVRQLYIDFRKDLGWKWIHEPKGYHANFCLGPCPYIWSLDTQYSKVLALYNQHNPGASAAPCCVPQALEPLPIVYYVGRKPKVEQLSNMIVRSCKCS

B1: BM-1 (1D11, R&D Systems MAB1835) (antibody, from another filing, V domains shown)
VH: QVQLQQSGPELVRPGASVKLSCKASGYIFITYWMNWVKQRPGQGLEWIGQIFPASGSTNYNEMFEGKATLTVDTSSSTAYMQLSSLTSEDSAVYYCARGDGNYALDAMDYWGQGTSVTVSS
VL: DIVLTQSPASLAVSLGQRATISCRASESVDSYGNSFMHWYQQKSGQPPKLLIYLASNLESGVPARFSGSGSRTDFTLTIDPVEADDAATYYCQQNNEDPLTFGAGTKLEIK
With B1, the Kd with TGFβ3 (human) [1] stood at 0.188 nM; in the assay with TGFβ2 (human) [2], 0.977 nM; with TGFβ1 (human) [3], 0.304 nM; with TGFβ3 (human) [4], 0.048 nM; with TGFβ2 (human) [5], 0.17 nM; with TGFβ1 (human) [6], 0.072 nM. The koff in the assay with TGFβ3 (human) [1] turned out to be 0.000946 s⁻¹; in the assay with TGFβ2 (human) [2] it was 0.00684 s⁻¹; with TGFβ1 (human) [3], 0.0039 s⁻¹; with TGFβ3 (human) [4] it was 0.00031 s⁻¹; in the assay with TGFβ2 (human) [5], 0.002 s⁻¹; in the assay with TGFβ1 (human) [6], 0.0014 s⁻¹. For the same molecule, the kon is 5.05e+06 M⁻¹ s⁻¹ with TGFβ3 (human) [1]; 7e+06 M⁻¹ s⁻¹ with TGFβ2 (human) [2]; 1.28e+07 M⁻¹ s⁻¹ in the assay with TGFβ1 (human) [3]; 6.5e+06 M⁻¹ s⁻¹ with TGFβ3 (human) [4]; 1.1e+07 M⁻¹ s⁻¹ with TGFβ2 (human) [5]; 1.9e+07 M⁻¹ s⁻¹ with TGFβ1 (human) [6]. The results for the HT-2 cell neutralization assay, IC50 in the assay with TGFβ3 (human) [7] and in the assay with TGFβ1 (human) [9] were 196 and 220, respectively. The IL-11 Release Assay - IC50 (A549 cells) stood at 0.012 µg/mL in the assay with TGFβ3 (human) [7], 0.498 µg/mL with TGFβ2 (human) [8] and 0.292 µg/mL with TGFβ1 (human) [9].
